Consider 1 substance from patent publication US5605671.

pKd: −log10 of the molar value.

Test [1] deals with Interleukin-8 receptor molecules on purified human neutrophils.
For test [2] the target is unchanged. Nature of the test: saturation binding of radioligand to purified human neutrophils, analysis of binding curves.
For test [3] the target is unchanged. The test is described as follows: radioligand binding to purified human neutrophils, with and without 1000-fold molar excess of nonlabeled IL-8.

What is called pKd is the Kd on a negative log10 scale, so that one unit is a factor of ten. Low values mean a large Kd, high ones a small Kd.

As for “I-125-labeled human recombinant interleukin-8 (ligand)”, in test [1], the neutrophil chemotaxis in a Boyden chamber is > 95%. Also, in test [2], the negative-log Kd (pKd) is 9.08 and the estimated maximum binding sites per cell (binding sites per cell) was 60000. Further, the specific binding as share of total binding in test [3] is > 90%.
